This assay has as its target T1, soluble human GPC3 (human, UniProt P51654 25-563, limits assumed).
T1 construct: soluble human GPC3 as analyte; also called glypican 3
The assay can be described thus: SPR (Biacore), soluble human GPC3. (In general: SPR reads the build-up and loss of mass on a sensor chip optically.)

Changes are numbered by the printed parent chain.

T1 sequence (P51654 other isoform, or with tags, fused parts or gaps limits assumed, form in doubt): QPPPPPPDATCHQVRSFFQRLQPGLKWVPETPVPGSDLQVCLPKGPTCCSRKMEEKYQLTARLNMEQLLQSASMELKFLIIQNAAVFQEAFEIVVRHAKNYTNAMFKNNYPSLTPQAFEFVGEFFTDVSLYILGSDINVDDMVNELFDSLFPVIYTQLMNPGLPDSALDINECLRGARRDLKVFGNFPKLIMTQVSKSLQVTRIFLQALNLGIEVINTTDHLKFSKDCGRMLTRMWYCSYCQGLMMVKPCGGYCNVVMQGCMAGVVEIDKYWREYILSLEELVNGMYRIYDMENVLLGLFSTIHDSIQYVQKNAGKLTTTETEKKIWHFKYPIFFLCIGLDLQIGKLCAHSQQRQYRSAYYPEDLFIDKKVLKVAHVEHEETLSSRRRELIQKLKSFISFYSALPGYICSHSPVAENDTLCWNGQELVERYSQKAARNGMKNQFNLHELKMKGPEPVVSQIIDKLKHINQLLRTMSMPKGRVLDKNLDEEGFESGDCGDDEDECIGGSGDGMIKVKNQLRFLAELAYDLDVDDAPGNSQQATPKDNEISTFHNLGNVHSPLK

B1: H0610-G1dh/none-Hi-Kn010G3/L0032-k0 (antibody, human IgG1, kappa)
heavy: not shown
chain: EPKSSDKTHTCPPCPAPELLGGPSVFLFPPKPKDTLMISRTPEVTCVVVDVSHEDPEVKFNWYVDGVEVHNAKTKPREEQYNSTYRVVSVLTVLHQDWLNGKEYKCKVSNKALPAPIEKTISKAKGQPREPQVCTLPPSRDELTKNQVSLWCLVKGFYPSDIAVEWESNGQPENNYKTTPPVLDSDGSFFLYSKLTVDKSRWQQGNVFSCSVMHEALHNRYTQKSLSLSP
light: DIVMTQSPLSLPVTPGEPASISCRSSQSLVRSNRNTYLHWYQQKPGQAPRLLIYKVSNRFSGVPDRFSGSGSGTDFTLKISRVEAEDVGVYYCGQGTQVPYTFGQGTKLEIKRTVAAPSVFIFPPSDEQLKSGTASVVCLLNNFYPREAKVQWKVDNALQSGNSQESVTEQDSKDSTYSLSSTLTLSKADYEKHKVYACEVTHQGLSSPVTKSFNRGEC
notes: single-arm (one Fab)
Turning to B1, the dissociation constant Kd (as a rule, the constant that tells how readily two partners part at equilibrium) came out at 3.72 nM.

B2: H0610-G1dh/none-Hi-Kn010G3/L0079-k0 (antibody, human IgG1, kappa)
heavy: not shown
chain: B1 chain
light: B1 light with R31H, L38I
notes: single-arm (one Fab)
The molecule B2 returned an equilibrium dissociation constant (Kd) of 4.23 nM.

B3: H0610-G1dh/none-Hi-Kn010G3/L0161-k0 (antibody, human IgG1, kappa)
heavy: not shown
chain: B1 chain
light: B1 light with R31H, G94V
notes: single-arm (one Fab)
B3 had an equilibrium dissociation constant (Kd) of 0.973 nM.

B4: H0610-G1dh/none-Hi-Kn010G3/L0155-k0 (antibody, human IgG1, kappa)
heavy: not shown
chain: B1 chain
light: B1 light with R31H, G94L
notes: single-arm (one Fab)
As for B4, the equilibrium dissociation constant (Kd) amounted to 1.28 nM.

B5: H0610-G1dh/none-Hi-Kn010G3/L0122-k0 (antibody, human IgG1, kappa)
heavy: not shown
chain: B1 chain
light: B1 light with R31H, F60I
notes: single-arm (one Fab)
B5 returned a Kd of 2.42 nM.

B6: H0610-G1dh/none-Hi-Kn010G3/L0041-k0 (antibody, human IgG1, kappa)
heavy: not shown
chain: B1 chain
light: B1 light with R31H, S32L
notes: single-arm (one Fab)
Take B6: binding was put at a Kd of 4.85 nM.

B7: H0610-G1dh/none-Hi-Kn010G3/L0143-k0 (antibody, human IgG1, kappa)
heavy: not shown
chain: B1 chain
light: B1 light with R31H, S61P
notes: single-arm (one Fab)
For B7, the Kd is 0.573 nM.

B8: H0610-G1dh/none-Hi-Kn010G3/L0047-k0 (antibody, human IgG1, kappa)
heavy: not shown
chain: B1 chain
light: B1 light with R31H, S32W
notes: single-arm (one Fab)
B8 returned a Kd of 2.23 nM.

B9: H0610-G1dh/none-Hi-Kn010G3/L0173-k0 (antibody, human IgG1, kappa)
heavy: not shown
chain: B1 chain
light: B1 light with R31H, V99F
notes: single-arm (one Fab)
B9: the equilibrium dissociation constant (Kd) stood at 2.83 nM.

B10: H0610-G1dh/none-Hi-Kn010G3/L0127-k0 (antibody, human IgG1, kappa)
heavy: not shown
chain: B1 chain
light: B1 light with R31H, F60P
notes: single-arm (one Fab)
In turn, B10 showed a dissociation constant Kd of 3.12 nM.

B11: H0610-G1dh/none-Hi-Kn010G3/L0160-k0 (antibody, human IgG1, kappa)
heavy: not shown
chain: B1 chain
light: B1 light with R31H, G94T
notes: single-arm (one Fab)
In the case of B11, the dissociation constant Kd is 2.12 nM.

B12: H0610-G1dh/none-Hi-Kn010G3/L0167-k0 (antibody, human IgG1, kappa)
heavy: not shown
chain: B1 chain
light: B1 light with R31H, G96S
notes: single-arm (one Fab)
As to B12, the equilibrium dissociation constant (Kd) was found to be 0.211 nM.

B13: H0610-G1dh/none-Hi-Kn010G3/L0129-k0 (antibody, human IgG1, kappa)
heavy: not shown
chain: B1 chain
light: B1 light with R31H, F60R
notes: single-arm (one Fab)
B13 had an equilibrium dissociation constant (Kd) of 4.54 nM.

B14: H0610-G1dh/none-Hi-Kn010G3/L0064-k0 (antibody, human IgG1, kappa)
heavy: not shown
chain: B1 chain
light: B1 light with R31H, N35F
notes: single-arm (one Fab)
In turn, B14 showed a dissociation constant Kd of 3.37 nM.

B15: H0610-G1dh/none-Hi-Kn010G3/L0163-k0 (antibody, human IgG1, kappa)
heavy: not shown
chain: B1 chain
light: B1 light with R31H, G94Y
notes: single-arm (one Fab)
B15: the dissociation constant Kd was 3.38 nM.

B16: H0610-G1dh/none-Hi-Kn010G3/L0140-k0 (antibody, human IgG1, kappa)
heavy: not shown
chain: B1 chain
light: B1 light with R31H, S61L
notes: single-arm (one Fab)
B16 showed a dissociation constant (Kd) of 3.38 nM.

B17: H0610-G1dh/none-Hi-Kn010G3/L0151-k0 (antibody, human IgG1, kappa)
heavy: not shown
chain: B1 chain
light: B1 light with R31H, G94E
notes: single-arm (one Fab)
Take B17: the equilibrium dissociation constant (Kd) was found to be 1.25 nM.

B18: H0610-G1dh/none-Hi-Kn010G3/L0085-k0 (antibody, human IgG1, kappa)
heavy: not shown
chain: B1 chain
light: B1 light with R31H, H39E
notes: single-arm (one Fab)
Molecule B18 showed an equilibrium dissociation constant (Kd) of 1.17 nM.

B19: H0610-G1dh/none-Hi-Kn010G3/L0148-k0 (antibody, human IgG1, kappa)
heavy: not shown
chain: B1 chain
light: B1 light with R31H, S61W
notes: single-arm (one Fab)
With B19, the dissociation constant Kd stood at 3.28 nM.

B20: H0610-G1dh/none-Hi-Kn010G3/L0124-k0 (antibody, human IgG1, kappa)
heavy: not shown
chain: B1 chain
light: B1 light with R31H, F60L
notes: single-arm (one Fab)
In the case of B20, the dissociation constant Kd is 0.972 nM.

B21: H0610-G1dh/none-Hi-Kn010G3/L0145-k0 (antibody, human IgG1, kappa)
heavy: not shown
chain: B1 chain
light: B1 light with R31H, S61R
notes: single-arm (one Fab)
Consider B21, for which the affinity, expressed as Kd, was 2.66 nM.

B22: H0610-G1dh/none-Hi-Kn010G3/L0107-k0 (antibody, human IgG1, kappa)
heavy: not shown
chain: B1 chain
light: B1 light with R31H, N58I
notes: single-arm (one Fab)
Molecule B22 showed a Kd of 4.38 nM.

B23: H0610-G1dh/none-Hi-Kn010G3/L0175-k0 (antibody, human IgG1, kappa)
heavy: not shown
chain: B1 chain
light: B1 light with R31H, V99H
notes: single-arm (one Fab)
In turn, B23 displayed a Kd of 3.84 nM.

B24: H0610-G1dh/none-Hi-Kn010G3/L0038-k0 (antibody, human IgG1, kappa)
heavy: not shown
chain: B1 chain
light: B1 light with R31H, S32F
notes: single-arm (one Fab)
B24 gave a Kd of 2.75 nM.

B25: H0610-G1dh/none-Hi-Kn010G3/L0125-k0 (antibody, human IgG1, kappa)
heavy: not shown
chain: B1 chain
light: B1 light with R31H, F60M
notes: single-arm (one Fab)
Regarding B25, binding was put at a Kd of 1.71 nM.

B26: H0610-G1dh/none-Hi-Kn010G3/L0065-k0 (antibody, human IgG1, kappa)
heavy: not shown
chain: B1 chain
light: B1 light with R31H, N35G
notes: single-arm (one Fab)
Take B26: the Kd worked out at 4.79 nM.

B27: H0610-G1dh/none-Hi-Kn010G3/L0168-k0 (antibody, human IgG1, kappa)
heavy: not shown
chain: B1 chain
light: B1 light with R31H, G96T
notes: single-arm (one Fab)
B27 displayed a Kd of 0.699 nM.

B28: H0610-G1dh/none-Hi-Kn010G3/L0093-k0 (antibody, human IgG1, kappa)
heavy: not shown
chain: B1 chain
light: B1 light with R31H, H39Q
notes: single-arm (one Fab)
Turning to B28, binding was characterised by a dissociation constant (Kd) of 0.106 nM.

B29: H0610-G1dh/none-Hi-Kn010G3/L0152-k0 (antibody, human IgG1, kappa)
heavy: not shown
chain: B1 chain
light: B1 light with R31H, G94F
notes: single-arm (one Fab)
In turn, B29 registered an equilibrium dissociation constant (Kd) of 2.36 nM.

B30: H0610-G1dh/none-Hi-Kn010G3/L0075-k0 (antibody, human IgG1, kappa)
heavy: not shown
chain: B1 chain
light: B1 light with R31H, N35W
notes: single-arm (one Fab)
In turn, B30 yielded a dissociation constant (Kd) of 2.85 nM.

B31: H0610-G1dh/none-Hi-Kn010G3/L0157-k0 (antibody, human IgG1, kappa)
heavy: not shown
chain: B1 chain
light: B1 light with R31H, G94N
notes: single-arm (one Fab)
As for B31, the dissociation constant (Kd) came to 2.6 nM.

B32: H0610-G1dh/none-Hi-Kn010G3/L0115-k0 (antibody, human IgG1, kappa)
heavy: not shown
chain: B1 chain
light: B1 light with R31H, N58W
notes: single-arm (one Fab)
Take B32: binding was characterised by a dissociation constant (Kd) of 4.34 nM.

B33: H0610-G1dh/none-Hi-Kn010G3/L0045-k0 (antibody, human IgG1, kappa)
heavy: not shown
chain: B1 chain
light: B1 light with R31H, S32Q
notes: single-arm (one Fab)
The molecule B33 registered an equilibrium dissociation constant (Kd) of 4.66 nM.

B34: H0610-G1dh/none-Hi-Kn010G3/L0039-k0 (antibody, human IgG1, kappa)
heavy: not shown
chain: B1 chain
light: B1 light with R31H, S32H
notes: single-arm (one Fab)
B34 had a dissociation constant (Kd) of 3.41 nM.

B35: H0610-G1dh/none-Hi-Kn010G3/L0154-k0 (antibody, human IgG1, kappa)
heavy: not shown
chain: B1 chain
light: B1 light with R31H, G94I
notes: single-arm (one Fab)
B35 had a Kd of 1.01 nM.

B36: H0610-G1dh/none-Hi-Kn010G3/L0066-k0 (antibody, human IgG1, kappa)
heavy: not shown
chain: B1 chain
light: B1 light with R31H, N35H
notes: single-arm (one Fab)
In the case of B36, the Kd worked out at 4.2 nM.

B37: H0610-G1dh/none-Hi-Kn010G3/L0042-k0 (antibody, human IgG1, kappa)
heavy: not shown
chain: B1 chain
light: B1 light with R31H, S32M
notes: single-arm (one Fab)
B37 came in with a Kd of 4.27 nM.

B38: H0610-G1dh/none-Hi-Kn010G3/L0044-k0 (antibody, human IgG1, kappa)
heavy: not shown
chain: B1 chain
light: B1 light with R31H, S32P
notes: single-arm (one Fab)
With B38, the Kd was determined as 4.57 nM.

B39: H0610-G1dh/none-Hi-Kn010G3/L0149-k0 (antibody, human IgG1, kappa)
heavy: not shown
chain: B1 chain
light: B1 light with R31H, G94A
notes: single-arm (one Fab)
B39 registered a Kd of 2.16 nM.

B40: H0610-G1dh/none-Hi-Kn010G3/L0141-k0 (antibody, human IgG1, kappa)
heavy: not shown
chain: B1 chain
light: B1 light with R31H, S61M
notes: single-arm (one Fab)
For the molecule B40, the Kd was found to be 3.86 nM.

B41: H0610-G1dh/none-Hi-Kn010G3/L0134-k0 (antibody, human IgG1, kappa)
heavy: not shown
chain: B1 chain
light: B1 light with R31H, F60Y
notes: single-arm (one Fab)
As for B41, the Kd was found to be 2.53 nM.

B42: H0610-G1dh/none-Hi-Kn010G3/L0090-k0 (antibody, human IgG1, kappa)
heavy: not shown
chain: B1 chain
light: B1 light with R31H, H39M
notes: single-arm (one Fab)
As for B42, the Kd stood at 1.12 nM.

B43: H0610-G1dh/none-Hi-Kn010G3/L0181-k0 (antibody, human IgG1, kappa)
heavy: not shown
chain: B1 chain
light: B1 light with R31H, V99P
notes: single-arm (one Fab)
For B43, the equilibrium dissociation constant (Kd) was 3.51 nM.

B44: H0610-G1dh/none-Hi-Kn010G3/L0082-k0 (antibody, human IgG1, kappa)
heavy: not shown
chain: B1 chain
light: B1 light with R31H, L38V
notes: single-arm (one Fab)
With B44, the Kd came to 3.43 nM.

Values taken from patent US20210388110A1 (published 2021).
